Literature values as cited in publication doi:10.1101/2021.01.30.427993.

Test system: Glu165
Details: not stated ('in the active site')

In the case of Triosephosphate isomerase (TIM), the pKa is listed as 3.9.
